{"source": "patent US8969060B2", "about": "“Modified glucose dehydrogenase” (Ikeda Food Research Co., Ltd., priority 2011, dated 2015)", "molecules": {"B1": {"name": "K354A: modified GLD: SEQ ID NO: 1 with substitution K354A (protein, listed as Aspergillus terreus)", "chain": "MLGKLSFLSALSLAVAAPLSNSTSAKYDYIVIGGGTSGLAVANRLSEDPNVNVLILEAGGSVWNNPNVTNVDGYGLAFGSDIDWQYQSVNQPYGGNLSQVLRAGKALGGTSTINGMAYTRAEDVQIDAWETIGNTGWTWKNLFPYYRKSENFTVPTKSQTSLGASYEAGAHGHEGPLDVAFTQIESNNLTTYLNRTFQGMGLPWTEDVNGGKMRGFNLYPSTVNLEEYVREDAARAYYWPYKSRPNLHVLLNTFANRIVWDGEAHDGHITASGVEITSRNGTVRVINAEKEVIVSAGALKSPAILELSGIGNPSVLDKHNIPVKVNLPTVGENLQDQVNSHMDASGNTSISGTAAVSYPDVYDVFGDEAESVAKQIRANLKQYAADTAKANGNIMKAADLERLFEVQYDLIFKGRVPIAEVLNYPGSATSVFAEFWALLPFARGSVHIGSSNPAEFPVINPNYFMLDWDAKSYVAVAKYIRRSFESYPLSSIVKESTPGYDVIPRNASEQSWKEWVFDKNYRSNFHPVGTAAMMPREIGGVVDERLNVYGTTNVRVVDASVLPFQVCGHLVSTLYAVAERAADLIKADAGRR", "modifications": "SIGNAL (1)..(19)"}, "B2": {"name": "K354C: modified GLD: SEQ ID NO: 1 with substitution K354C (protein, listed as Aspergillus terreus)", "chain": "B1 chain with A354C", "modifications": "SIGNAL (1)..(19)"}, "B3": {"name": "K354D: modified GLD: SEQ ID NO: 1 with substitution K354D (protein, listed as Aspergillus terreus)", "chain": "B1 chain with A354D", "modifications": "SIGNAL (1)..(19)"}, "B4": {"name": "K354E: modified GLD: SEQ ID NO: 1 with substitution K354E (protein, listed as Aspergillus terreus)", "chain": "B1 chain with A354E", "modifications": "SIGNAL (1)..(19)"}, "B5": {"name": "K354F: modified GLD: SEQ ID NO: 1 with substitution K354F (protein, listed as Aspergillus terreus)", "chain": "B1 chain with A354F", "modifications": "SIGNAL (1)..(19)"}, "B6": {"name": "K354G: modified GLD: SEQ ID NO: 1 with substitution K354G (protein, listed as Aspergillus terreus)", "chain": "B1 chain with A354G", "modifications": "SIGNAL (1)..(19)"}, "B7": {"name": "K354H: modified GLD: SEQ ID NO: 1 with substitution K354H (protein, listed as Aspergillus terreus)", "chain": "B1 chain with A354H", "modifications": "SIGNAL (1)..(19)"}, "B8": {"name": "K354M: modified GLD: SEQ ID NO: 1 with substitution K354M (protein, listed as Aspergillus terreus)", "chain": "B1 chain with A354M", "modifications": "SIGNAL (1)..(19)"}, "B9": {"name": "K354N: modified GLD: SEQ ID NO: 1 with substitution K354N (protein, listed as Aspergillus terreus)", "chain": "B1 chain with A354N", "modifications": "SIGNAL (1)..(19)"}, "B10": {"name": "K354P: modified GLD: SEQ ID NO: 1 with substitution K354P (protein, listed as Aspergillus terreus)", "chain": "B1 chain with A354P", "modifications": "SIGNAL (1)..(19)"}, "B11": {"name": "K354Q: modified GLD: SEQ ID NO: 1 with substitution K354Q (protein, listed as Aspergillus terreus)", "chain": "B1 chain with A354Q", "modifications": "SIGNAL (1)..(19)"}, "B12": {"name": "K354Y: modified GLD: SEQ ID NO: 1 with substitution K354Y (protein, listed as Aspergillus terreus)", "chain": "B1 chain with A354Y", "modifications": "SIGNAL (1)..(19)"}, "B13": {"name": "K354R: modified GLD: SEQ ID NO: 1 with substitution K354R (protein, listed as Aspergillus terreus)", "chain": "B1 chain with A354R", "modifications": "SIGNAL (1)..(19)"}, "B14": {"name": "K354S: modified GLD: SEQ ID NO: 1 with substitution K354S (protein, listed as Aspergillus terreus)", "chain": "B1 chain with A354S", "modifications": "SIGNAL (1)..(19)"}, "B15": {"name": "Y424C: modified GLD: SEQ ID NO: 1 with substitution Y424C (protein, listed as Aspergillus terreus)", "chain": "B1 chain with A354K, Y424C", "modifications": "SIGNAL (1)..(19)"}, "B16": {"name": "Y424D: modified GLD: SEQ ID NO: 1 with substitution Y424D (protein, listed as Aspergillus terreus)", "chain": "B1 chain with A354K, Y424D", "modifications": "SIGNAL (1)..(19)"}, "B17": {"name": "Y424E: modified GLD: SEQ ID NO: 1 with substitution Y424E (protein, listed as Aspergillus terreus)", "chain": "B1 chain with A354K, Y424E", "modifications": "SIGNAL (1)..(19)"}, "B18": {"name": "Y424K: modified GLD: SEQ ID NO: 1 with substitution Y424K (protein, listed as Aspergillus terreus)", "chain": "B1 chain with A354K, Y424K", "modifications": "SIGNAL (1)..(19)"}, "B19": {"name": "Y424N: modified GLD: SEQ ID NO: 1 with substitution Y424N (protein, listed as Aspergillus terreus)", "chain": "B1 chain with A354K, Y424N", "modifications": "SIGNAL (1)..(19)"}, "B20": {"name": "Y424Q: modified GLD: SEQ ID NO: 1 with substitution Y424Q (protein, listed as Aspergillus terreus)", "chain": "B1 chain with A354K, Y424Q", "modifications": "SIGNAL (1)..(19)"}, "B21": {"name": "Y424R: modified GLD: SEQ ID NO: 1 with substitution Y424R (protein, listed as Aspergillus terreus)", "chain": "B1 chain with A354K, Y424R", "modifications": "SIGNAL (1)..(19)"}, "B22": {"name": "Y424S: modified GLD: SEQ ID NO: 1 with substitution Y424S (protein, listed as Aspergillus terreus)", "chain": "B1 chain with A354K, Y424S", "modifications": "SIGNAL (1)..(19)"}, "B23": {"name": "Y424T: modified GLD: SEQ ID NO: 1 with substitution Y424T (protein, listed as Aspergillus terreus)", "chain": "B1 chain with A354K, Y424T", "modifications": "SIGNAL (1)..(19)"}, "B24": {"name": "Y424V: modified GLD: SEQ ID NO: 1 with substitution Y424V (protein, listed as Aspergillus terreus)", "chain": "B1 chain with A354K, Y424V", "modifications": "SIGNAL (1)..(19)"}, "B25": {"name": "G352A: modified GLD: SEQ ID NO: 1 with substitution G352A (protein, listed as Aspergillus terreus)", "chain": "B1 chain with G352A, A354K", "modifications": "SIGNAL (1)..(19)"}, "B26": {"name": "G352C: modified GLD: SEQ ID NO: 1 with substitution G352C (protein, listed as Aspergillus terreus)", "chain": "B1 chain with G352C, A354K", "modifications": "SIGNAL (1)..(19)"}}, "note": "Positions count from the first letter of the chain named. Numbers in names are those of the source. Where “and” joins values, the source holds several entries; their conditions need not be identical. Identical values can stand only once."}
{"assay": "Relative enzymatic activity of GLD (DCIP/1-m-PMS, plate reader, yeast culture supernatant) with 1,10-phenanthroline present", "assay_type": "biochemical", "conditions": "site-specific mutants, inhibitor final concentration 1 mM", "procedure,_shortened": "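Yeast transformants grown in YPD, 30° C., 24 h; diluted culture supernatant assayed in phosphate buffer pH 7.0 with D-glucose, DCIP and 1-m-PMS, DCIP absorbance change at 600 nm. Relative activity (%) = activity with 1 mM 1,10-phenanthroline (final, replacing methanol) divided by activity without it.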"}
{"molecule": "B1", "Relative Activity [%] 1,10-Phenanthroline": "66.2%"}
{"molecule": "B2", "Relative Activity [%] 1,10-Phenanthroline": "62.6%"}
{"molecule": "B3", "Relative Activity [%] 1,10-Phenanthroline": "70.8%"}
{"molecule": "B4", "Relative Activity [%] 1,10-Phenanthroline": "60.0%"}
{"molecule": "B5", "Relative Activity [%] 1,10-Phenanthroline": "47.8%"}
{"molecule": "B6", "Relative Activity [%] 1,10-Phenanthroline": "60.8%"}
{"molecule": "B7", "Relative Activity [%] 1,10-Phenanthroline": "52.6% and 51.0%"}
{"molecule": "B8", "Relative Activity [%] 1,10-Phenanthroline": "53.5%"}
{"molecule": "B9", "Relative Activity [%] 1,10-Phenanthroline": "61.9%"}
{"molecule": "B10", "Relative Activity [%] 1,10-Phenanthroline": "64.3%"}
{"molecule": "B11", "Relative Activity [%] 1,10-Phenanthroline": "71.4%"}
{"molecule": "B12", "Relative Activity [%] 1,10-Phenanthroline": "56.0%"}
{"molecule": "B13", "Relative Activity [%] 1,10-Phenanthroline": "64.4%"}
{"molecule": "B14", "Relative Activity [%] 1,10-Phenanthroline": "71.6%"}
{"molecule": "B15", "Relative Activity [%] 1,10-Phenanthroline": "73.7%"}
{"molecule": "B16", "Relative Activity [%] 1,10-Phenanthroline": "87.1%"}
{"molecule": "B17", "Relative Activity [%] 1,10-Phenanthroline": "87.5%"}
{"molecule": "B18", "Relative Activity [%] 1,10-Phenanthroline": "71.9%"}
{"molecule": "B19", "Relative Activity [%] 1,10-Phenanthroline": "89.9%"}
{"molecule": "B20", "Relative Activity [%] 1,10-Phenanthroline": "80.2%"}
{"molecule": "B21", "Relative Activity [%] 1,10-Phenanthroline": "70.3%"}
{"molecule": "B22", "Relative Activity [%] 1,10-Phenanthroline": "81.4%"}
{"molecule": "B23", "Relative Activity [%] 1,10-Phenanthroline": "71.2%"}
{"molecule": "B24", "Relative Activity [%] 1,10-Phenanthroline": "49.1%"}
{"molecule": "B25", "Relative Activity [%] 1,10-Phenanthroline": "76.1%"}
{"molecule": "B26", "Relative Activity [%] 1,10-Phenanthroline": "86.2%"}
{"assay": "Relative enzymatic activity of GLD (DCIP/1-m-PMS, plate reader, yeast culture supernatant) with proflavin hydrochloride present", "assay_type": "biochemical", "conditions": "site-specific mutants, inhibitor final concentration 1 mM", "procedure,_shortened": "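Culture supernatant diluted and mixed with reagent of phosphate buffer pH 7.0, 1.0 M D-glucose, 3 mM DCIP, 3 mM 1-m-PMS and methanol (0.1:1:0.14:0.2:0.06). DCIP absorbance decrease at 600 nm followed; proflavin hydrochloride in methanol replaced methanol at 1 mM final. Activity expressed as % of inhibitor-free blank.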"}
{"molecule": "B1", "Relative Activity [%] Proflavin hydrochloride": "8.9%"}
{"molecule": "B2", "Relative Activity [%] Proflavin hydrochloride": "14.4%"}
{"molecule": "B3", "Relative Activity [%] Proflavin hydrochloride": "11.6%"}
{"molecule": "B4", "Relative Activity [%] Proflavin hydrochloride": "20.7%"}
{"molecule": "B5", "Relative Activity [%] Proflavin hydrochloride": "16.0%"}
{"molecule": "B6", "Relative Activity [%] Proflavin hydrochloride": "23.0%"}
{"molecule": "B7", "Relative Activity [%] Proflavin hydrochloride": "11.1% and 11.6%"}
{"molecule": "B8", "Relative Activity [%] Proflavin hydrochloride": "10.7%"}
{"molecule": "B9", "Relative Activity [%] Proflavin hydrochloride": "15.1%"}
{"molecule": "B10", "Relative Activity [%] Proflavin hydrochloride": "16.7%"}
{"molecule": "B11", "Relative Activity [%] Proflavin hydrochloride": "12.5%"}
{"molecule": "B12", "Relative Activity [%] Proflavin hydrochloride": "15.1%"}
{"molecule": "B13", "Relative Activity [%] Proflavin hydrochloride": "12.6%"}
{"molecule": "B14", "Relative Activity [%] Proflavin hydrochloride": "21.3%"}
{"molecule": "B15", "Relative Activity [%] Proflavin hydrochloride": "45.9%"}
{"molecule": "B16", "Relative Activity [%] Proflavin hydrochloride": "37.2%"}
{"molecule": "B17", "Relative Activity [%] Proflavin hydrochloride": "37.1%"}
{"molecule": "B18", "Relative Activity [%] Proflavin hydrochloride": "52.5%"}
{"molecule": "B19", "Relative Activity [%] Proflavin hydrochloride": "55.6%"}
{"molecule": "B20", "Relative Activity [%] Proflavin hydrochloride": "50.2%"}
{"molecule": "B21", "Relative Activity [%] Proflavin hydrochloride": "55.6%"}
{"molecule": "B22", "Relative Activity [%] Proflavin hydrochloride": "61.0%"}
{"molecule": "B23", "Relative Activity [%] Proflavin hydrochloride": "43.4%"}
{"molecule": "B24", "Relative Activity [%] Proflavin hydrochloride": "46.7%"}
{"molecule": "B25", "Relative Activity [%] Proflavin hydrochloride": "47.9%"}
{"molecule": "B26", "Relative Activity [%] Proflavin hydrochloride": "43.8%"}
